Where two headings read alike, the source gives them in different places.
B1: sR47 mut C/D and C'/D' (structured_RNA)
RNA: GAUGAAGAUUCUGAGCUCGGCAGGUCCUUCGGAGUUCUGAGGAUCUUGAGUGCUUCUUCACCUU

How the values were obtained:
L7Ae [1] = biological target: T1, L7Ae (Pyrococcus abyssi, UniProt P62008 1-123); assay: EMSA
L7Ae [2] = biological target: T1, L7Ae; assay: EMSA; remark: listed apart in the source

| Binder | binding result (L7Ae [1]) | binding result (L7Ae [2]) |
| --- | --- | --- |
| GGGACUGACCAGUGAUGACCC (structured_RNA) [sR6 CCA spacer] | no binding | – |
| GGGACUGAGGGUGAUGACCC (structured_RNA) [sR6 2-nt spacer GG] | no binding | – |
| B1 | – | no binding |
| GGGACUUCGCAGUUCUGACCC (structured_RNA) [sR6 mut C'/D'] | – | no binding |
| GGGACUGACCCGUGAUGACCC (structured_RNA) [sR6 LC] | – | no binding |
| GGGACUGAGCAUUGAUGACCC (structured_RNA) [sR6 L2] | – | no binding |
